Consider one substance from US20240159767A1.

The assay concerns the target PKA substrate fused to MinD (phosphorylated form) (Escherichia coli). Briefly: power ratio of live-cell fluorescence oscillations, saturating isoprenaline.

“FHA1-mCerulean (from UniProt P22216 22-162)”: the fold increase of the power ratio of the FHA1 signal to the MinDE carrier after a saturating dose of isoprenaline against resting cells was below 7 fold.
